From patent US20260008847A1 (ELPISCIENCE SUZHOU BIOPHARMA, published 2026)

B1: J-19 (antibody, V domains shown)
VH: QVTLKESGPGILQPSHTLSLTCSFSGFSLNTYAMGVSWIRQPSGKGLEWLASIWWNGNKYNNPSLKSRLTVSKDTSNNQAFLKVTSVDTADTATYYCAHSRIIRFTDYVMDAWGQGASVTVSS
VL: DIQMTQSPASLSTFLGEPVTIECRASEDIYNDLAWYQQKPGKSPQLLIYNANSLHTGVPSRFSGSGSGTQYSLKINSLQSEDVASYFCQQYYDYPLTFGSGTKLEIK
notes: Human IgG4 monoclonal antibody with S228P in the constant region, made according to WO 2019/126514 A2; also called benchmark antibody J-19
B2: 043c (antibody, V domains shown)
VH: QVQLQQSGAELAKPGASVKLSCKASGYTFTSYWMYWVKQRPGQGLEWIGHINPSSGYTKYNQKFKDKATLTADKSSSTAYMQLSSLTYEDSAVYYCARDPNWDNYWGQGTTLTVSS
VL: DIVMTQSHKFMSTSVGDRVSITCKASQDVSIAVAWYQQKPGQSPKLLIYSASYRYTGVPDRFTGSGSGTDFTFTISSVQAEDLAVYYCQQHYSTPYTFGGGTKLEIK
notes: Human IgG4 chimeric antibody with S228P mutation at the Fc region; also called chimeric antibody 043c; parental antibody 043c
B3: 1E1 (antibody, V domains shown)
VH: QVQLQQWGAGLLKPSETLSLTCAVYGGSFSGYYWSWIRQPPGKGLEWIGEINHSGSTNYNPSLKSRVTISVDTSKNQFSLKLSSVTAADTAVYYCARLPTRWVTTRYFDLWGRGTLVTVSS
VL: QSVLTQPPSVSGAPGQRVTISCTGSSSNIGAGYDVHWYQQLPGTAPKLLIYGNSNRPSGVPDRFSVSKSGASASLAITGLQAEDEADYYCQSFDNSLSAYVFGGGTQLTVL
notes: Human IgG4 monoclonal antibody with S228P in the constant region, made according to US 2018/0298096 A1; also called benchmark antibody 1E1

Target: T1, 6×His-tagged human LILRB2 ECD recombinant protein (human, UniProt Q8N423 22-458, limits assumed)
T1 construct: Bought protein; not shown: 6×His-tag
T1 sequence (Q8N423 22-458 limits assumed): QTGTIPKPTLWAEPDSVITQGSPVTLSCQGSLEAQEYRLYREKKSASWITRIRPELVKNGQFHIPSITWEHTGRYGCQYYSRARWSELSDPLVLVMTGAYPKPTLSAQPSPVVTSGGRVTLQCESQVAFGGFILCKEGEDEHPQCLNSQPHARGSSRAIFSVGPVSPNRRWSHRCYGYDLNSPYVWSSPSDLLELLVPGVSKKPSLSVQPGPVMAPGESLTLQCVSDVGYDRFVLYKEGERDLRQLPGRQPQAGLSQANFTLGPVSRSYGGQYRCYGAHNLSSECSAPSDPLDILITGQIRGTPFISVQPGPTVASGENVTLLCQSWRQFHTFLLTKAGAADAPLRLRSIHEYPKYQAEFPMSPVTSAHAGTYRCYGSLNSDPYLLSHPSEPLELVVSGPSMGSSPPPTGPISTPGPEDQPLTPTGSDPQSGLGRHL
Test: Octet tandem binning on captured 6×His LILRB2 ECD; competitor (Ab1) 043c

relative binding signal of Ab2 in tandem [%]	Binder
96	B1
3	B2
100	B3

Target: T2, Human LILRB2 stably expressed on EL4 cells (EL4/LILRB2) (human, UniProt Q8N423 22-597)
T2 construct: also called EL4-LILRB2 cells; cell membrane human LILRB2
T2 sequence (Q8N423 22-597 limits assumed): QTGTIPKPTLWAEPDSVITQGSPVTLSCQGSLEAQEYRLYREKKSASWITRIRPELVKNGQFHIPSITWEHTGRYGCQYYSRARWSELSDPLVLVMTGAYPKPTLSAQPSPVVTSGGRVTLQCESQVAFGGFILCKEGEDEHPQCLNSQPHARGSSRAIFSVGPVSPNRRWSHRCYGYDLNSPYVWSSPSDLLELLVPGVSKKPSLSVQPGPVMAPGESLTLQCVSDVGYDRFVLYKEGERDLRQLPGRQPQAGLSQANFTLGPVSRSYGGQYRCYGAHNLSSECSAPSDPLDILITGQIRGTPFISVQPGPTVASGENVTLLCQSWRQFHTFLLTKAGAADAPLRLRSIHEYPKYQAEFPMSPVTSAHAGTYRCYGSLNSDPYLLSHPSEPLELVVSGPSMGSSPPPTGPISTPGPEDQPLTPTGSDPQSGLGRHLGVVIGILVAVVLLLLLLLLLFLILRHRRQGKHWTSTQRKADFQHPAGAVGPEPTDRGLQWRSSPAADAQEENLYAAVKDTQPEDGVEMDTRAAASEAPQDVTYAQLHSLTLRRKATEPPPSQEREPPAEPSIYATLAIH
Test: Competitive FACS: EL4/LILRB2 cells preincubated with 10 ug/mL antibody, then ANGPTL4 added; inhibition of the ligand's binding to the cells [panel ANGPTL4]
Experimental: (§1) The blocking activities were determined by quantitating the blockade of the ligands binding to EL4/LILRB2 cells.

Inhibition (%)	Binder
59	B1
63	B2
54	B3

Target: T3, Human LILRA2 ECD recombinant protein with His-tag (human, UniProt Q8N149 24-449)
T3 construct: range 24-449; Bought protein; not shown: His-tag
T3 sequence (Q8N149 24-449 limits assumed): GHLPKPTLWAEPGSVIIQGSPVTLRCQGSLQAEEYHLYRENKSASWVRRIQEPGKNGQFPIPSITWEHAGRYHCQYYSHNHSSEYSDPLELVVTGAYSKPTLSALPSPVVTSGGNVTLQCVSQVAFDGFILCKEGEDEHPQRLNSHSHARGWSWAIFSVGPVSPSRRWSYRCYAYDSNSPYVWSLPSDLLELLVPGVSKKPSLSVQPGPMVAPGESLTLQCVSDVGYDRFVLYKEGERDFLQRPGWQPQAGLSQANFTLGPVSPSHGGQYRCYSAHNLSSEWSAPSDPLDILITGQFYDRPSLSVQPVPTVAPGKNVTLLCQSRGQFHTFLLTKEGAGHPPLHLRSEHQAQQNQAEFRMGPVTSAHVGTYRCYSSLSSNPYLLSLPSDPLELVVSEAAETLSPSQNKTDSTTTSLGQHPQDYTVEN
Test: ELISA: plate coated with LILRA2 ECD recombinant protein [continued) B]

binding result	Binder
no binding (tested: 0.5 ug/mL)	B1
no binding (tested: 0.5 ug/mL)	B2
no binding (tested: 0.5 ug/mL)	B3

Target: T4, Human LILRB3 ECD recombinant protein with 6×His-tag (human, UniProt O75022 24-443)
T4 construct: range 1-443; Bought protein; not shown: 6×His-tag
Test: ELISA: plate coated with LILRB3 ECD recombinant protein [continued) G]

binding result	Binder
no binding (tested: 0.5 ug/mL)	B1
no binding (tested: 0.5 ug/mL)	B2
no binding (tested: 0.5 ug/mL)	B3

Target: T5, Human LILRB1 ECD recombinant protein with 6×His-tag (human, UniProt Q8NHL6 24-458, limits assumed)
T5 construct: Bought protein; not shown: 6×His-tag
T5 sequence (Q8NHL6 24-458 limits assumed): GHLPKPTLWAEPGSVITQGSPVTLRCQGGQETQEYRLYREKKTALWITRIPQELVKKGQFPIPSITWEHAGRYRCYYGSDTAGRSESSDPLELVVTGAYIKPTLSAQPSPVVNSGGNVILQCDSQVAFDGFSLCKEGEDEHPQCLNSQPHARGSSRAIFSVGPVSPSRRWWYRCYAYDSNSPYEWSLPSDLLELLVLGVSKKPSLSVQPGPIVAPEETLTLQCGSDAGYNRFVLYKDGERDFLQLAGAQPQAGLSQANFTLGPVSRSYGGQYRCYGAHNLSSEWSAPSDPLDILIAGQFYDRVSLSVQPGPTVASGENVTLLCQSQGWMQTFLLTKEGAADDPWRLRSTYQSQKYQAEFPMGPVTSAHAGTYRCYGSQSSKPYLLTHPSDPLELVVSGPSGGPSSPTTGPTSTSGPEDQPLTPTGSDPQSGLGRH
Test: ELISA: plate coated with LILRB1 ECD recombinant protein [continued) F]

binding result	Binder
no binding (tested: 0.5 ug/mL)	B1
no binding (tested: 0.5 ug/mL)	B2
no binding (tested: 0.5 ug/mL)	B3

Target: T5, Human LILRB1 ECD recombinant protein …
Test: ELISA: plate coated with LILRB1 ECD recombinant protein, antibody at 0.5 ug/mL (method of example 3.2.1); mean OD450 printed over the bar [continued) F]
Experimental: (§2) Briefly, 0.5 μg/mL anti-LILRB2 antibodies were incubated in human LILRB2 ECD recombinant protein-coated ELISA plate at 37° C. for 1 hour. After washing, horseradish peroxidase (HRP) labeled detection antibody was added and incubated at 37° C. for 1 hour. Color development was conducted by the addition of 100 μl/well of TMB (3,3′,5,5′-Tetramethylbenzidine) solution. After incubation at room temperature (RT) for 10-15 minutes, the reaction was stopped by adding 100 μl 1N HCl. Then the plates were read immediately using plate reader for optical density at 450 nm.

OD450	Binder
0.1	B1
0.08	B2
0.08	B3

Target: T2, Human LILRB2 stably expressed on EL4 …
Test: Competitive FACS: EL4/LILRB2 cells preincubated with 10 ug/mL antibody, then HLA-A2 complex added; inhibition of the ligand's binding to the cells [panel HLA-A2]
Experimental: as §1

Inhibition (%)	Binder
100	B1
100	B2
99	B3

Target: T2, Human LILRB2 stably expressed on EL4 …
Test: competitive FACS on EL4/LILRB2 cells, blockade of HLA-G binding
Experimental: as §1

IC50 [nM]	TOP Blocking (%)	Binder
0.04	100	B1
0.1	100	B2
0.32	100	B3

Target: T6, Human LILRA1 ECD recombinant protein with 6×His-tag (human, UniProt O75019 17-461)
T6 construct: range 1-461; Bought protein; not shown: 6×His-tag
T6 sequence (O75019 17-461 limits assumed): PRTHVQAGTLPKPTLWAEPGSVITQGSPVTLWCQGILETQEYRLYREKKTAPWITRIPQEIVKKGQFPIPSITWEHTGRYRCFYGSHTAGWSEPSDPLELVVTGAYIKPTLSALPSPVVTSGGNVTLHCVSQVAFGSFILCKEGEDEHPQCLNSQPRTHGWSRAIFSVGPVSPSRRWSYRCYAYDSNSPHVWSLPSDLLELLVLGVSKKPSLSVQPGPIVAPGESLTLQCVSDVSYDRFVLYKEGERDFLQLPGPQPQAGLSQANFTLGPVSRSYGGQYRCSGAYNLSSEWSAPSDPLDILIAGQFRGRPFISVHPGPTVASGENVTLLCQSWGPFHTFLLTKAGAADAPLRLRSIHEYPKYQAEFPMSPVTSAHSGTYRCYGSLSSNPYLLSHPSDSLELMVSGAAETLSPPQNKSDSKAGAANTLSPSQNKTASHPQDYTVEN
Test: ELISA: plate coated with LILRA1 ECD recombinant protein, antibody at 0.5 ug/mL (method of example 3.2.1); mean OD450 printed over the bar

OD450	Binder
0.16	B1
0.15	B2
0.15	B3

Target: T1, 6×His-tagged human LILRB2 ECD …
Test: Octet tandem binning on captured 6×His LILRB2 ECD; competitor (Ab1) J-19
Experimental: Briefly, the HIS1K sensors were hydrolyzed for 10 minutes followed by capture of 6×His-tagged human LILRB2 ECD recombinant protein to 0.3 nm. The LILRB2 captured sensors were then exposed to Ab1 and Ab2 in tandem or Ab2 directly. The binding signals of Ab2 to LILRB2 under different conditions were detected respectively. Finally, the relative binding signals of Ab2 in tandem were calculated by normalization. High relative binding signals represent low competition between Ab2 and Ab1 for binding antigen. Likewise, low relative association signals represent high competition between Ab2 and Ab1.

relative binding signal of Ab2 in tandem [%]	Binder
-3	B1
100	B2
17	B3

Target: T1, 6×His-tagged human LILRB2 ECD …
Test: Bio-Layer Interferometry (Octet), 1:1 model, human LILRB2 ECD

Kd [nM]	koff [s⁻¹]	kon [M⁻¹ s⁻¹]	Binder
2.14	0.00178	830000	B1
0.74	0.000557	756000	B2
8.07	0.00204	253000	B3

Target: T2, Human LILRB2 stably expressed on EL4 …
Test: Competitive FACS: EL4/LILRB2 cells preincubated with 10 ug/mL antibody, then ANGPTL2 added; inhibition of the ligand's binding to the cells [panel ANGPTL2]
Experimental: as §1

Inhibition (%)	Binder
97	B1
93	B2
94	B3

Target: T7, Human LILRB5 ECD recombinant protein with 6×His-tag (human, UniProt O75023 24-458, limits assumed)
T7 construct: Bought protein; not shown: 6×His-tag
T7 sequence (O75023 24-458 limits assumed): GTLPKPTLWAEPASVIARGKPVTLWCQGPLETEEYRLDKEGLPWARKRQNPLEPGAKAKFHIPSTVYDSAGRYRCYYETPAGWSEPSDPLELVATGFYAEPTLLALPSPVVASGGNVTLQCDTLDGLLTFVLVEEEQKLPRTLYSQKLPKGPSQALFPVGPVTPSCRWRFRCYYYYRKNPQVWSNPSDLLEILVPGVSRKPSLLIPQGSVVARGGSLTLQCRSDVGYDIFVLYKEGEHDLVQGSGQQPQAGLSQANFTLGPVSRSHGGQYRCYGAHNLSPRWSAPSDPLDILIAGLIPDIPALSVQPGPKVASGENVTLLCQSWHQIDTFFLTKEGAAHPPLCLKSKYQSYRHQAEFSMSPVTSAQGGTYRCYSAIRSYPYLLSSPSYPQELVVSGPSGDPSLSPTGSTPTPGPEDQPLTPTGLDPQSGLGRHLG
Test: ELISA: plate coated with LILRB5 ECD recombinant protein, antibody at 0.5 ug/mL (method of example 3.2.1); mean OD450 printed over the bar [continued) I]

OD450	Binder
0.09	B1
0.08	B2
0.07	B3

Target: T2, Human LILRB2 stably expressed on EL4 …
Test: Competitive FACS: EL4/LILRB2 cells preincubated with 10 ug/mL antibody, then HLA-G complex tetramer added; inhibition of the ligand's binding to the cells [panel HLA-G]
Experimental: as §1

Inhibition (%)	Binder
100	B1
100	B2
100	B3

Target: T8, Human LILRA5 ECD recombinant protein with 6×His-tag (human, UniProt A6NI73 42-268)
T8 construct: range 1-268; Bought protein; not shown: 6×His-tag
T8 sequence (A6NI73 42-268 limits assumed, form in doubt): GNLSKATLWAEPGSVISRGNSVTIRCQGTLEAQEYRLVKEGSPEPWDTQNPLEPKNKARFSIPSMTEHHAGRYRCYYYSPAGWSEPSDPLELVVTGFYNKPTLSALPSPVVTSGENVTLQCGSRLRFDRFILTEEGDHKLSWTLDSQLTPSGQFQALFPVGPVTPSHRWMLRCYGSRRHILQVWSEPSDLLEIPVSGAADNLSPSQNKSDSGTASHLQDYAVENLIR
Test: ELISA: plate coated with LILRA5 ECD recombinant protein, antibody at 0.5 ug/mL (method of example 3.2.1); mean OD450 printed over the bar [continued) E]

OD450	Binder
0.09	B1
0.08	B2
0.07	B3

Target: T9, Human LILRA4 ECD recombinant protein with 6×His-tag (human, UniProt P59901 24-446)
T9 construct: range 1-446; Bought protein; not shown: 6×His-tag
T9 sequence (P59901 24-446 limits assumed): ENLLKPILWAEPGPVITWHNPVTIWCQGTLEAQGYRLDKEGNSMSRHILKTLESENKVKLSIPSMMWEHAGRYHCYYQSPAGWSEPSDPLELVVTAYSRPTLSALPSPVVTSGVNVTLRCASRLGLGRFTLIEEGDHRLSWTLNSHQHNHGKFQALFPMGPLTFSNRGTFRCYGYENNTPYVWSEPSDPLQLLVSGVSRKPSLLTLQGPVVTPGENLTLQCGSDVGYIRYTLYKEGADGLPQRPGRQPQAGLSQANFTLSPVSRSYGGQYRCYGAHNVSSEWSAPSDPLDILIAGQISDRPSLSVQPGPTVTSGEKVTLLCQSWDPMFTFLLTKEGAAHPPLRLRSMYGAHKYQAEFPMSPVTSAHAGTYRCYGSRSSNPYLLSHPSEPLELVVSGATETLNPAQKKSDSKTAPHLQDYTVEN
Test: ELISA: plate coated with LILRA4 ECD recombinant protein [continued) D]

binding result	Binder
no binding (tested: 0.5 ug/mL)	B1
no binding (tested: 0.5 ug/mL)	B2
no binding (tested: 0.5 ug/mL)	B3

Target: T1, 6×His-tagged human LILRB2 ECD …
Test: ELISA: plate coated with 6xHis-tagged human LILRB2 ECD, antibody at 0.5 ug/mL, HRP detection antibody; mean OD450 printed over the bar
Experimental: as §2

OD450	Binder
3.27	B1
2.72	B2
1.42	B3

Target: T7, Human LILRB5 ECD recombinant protein …
Test: ELISA: plate coated with LILRB5 ECD recombinant protein [continued) I]

binding result	Binder
no binding (tested: 0.5 ug/mL)	B1
no binding (tested: 0.5 ug/mL)	B2
no binding (tested: 0.5 ug/mL)	B3

Target: T2, Human LILRB2 stably expressed on EL4 …
Test: Competitive FACS: EL4/LILRB2 cells preincubated with 10 ug/mL antibody, then ANGPTL7 added; inhibition of the ligand's binding to the cells [panel ANGPTL7]
Experimental: as §1

Inhibition (%)	Binder
97	B1
89	B2
96	B3

Target: T4, Human LILRB3 ECD recombinant protein …
Test: ELISA: plate coated with LILRB3 ECD recombinant protein, antibody at 0.5 ug/mL (method of example 3.2.1); mean OD450 printed over the bar [continued) G]
Experimental: as §2

OD450	Binder
0.09	B1
0.08	B2
0.07	B3
